Test [1] deals with T1, hPDL1(19-239)-TVMV-His (recombinant human PD-L1-TVMV-His) (UniProt Q9NZQ7 19-239). As to the kind of experiment: HTRF PD-1/PD-L1 binding inhibition.
Test [2] concerns the target T1, hPDL1(19-239)-TVMV-His (recombinant …). Kind of test: HTRF competition with biotinylated Compound No. 71.
The next test concerns the target human PD-L1 on cells (human, UniProt Q9NZQ7 19-290). As to the kind of experiment: cell binding assay, blocking of PD-1-Ig (PE) to LK35.2-hPD-L1 cells.

Positions of bridges follow the written chain, without caps; N, C: chain ends. Non-standard residues stand in square brackets, D forms with d. NMeNle = CCCC[C@H](NC)C(=O)O; NMeA = CN[C@@H](C)C(=O)O

Sequence of human PD-L1 on cells (Q9NZQ7 19-290): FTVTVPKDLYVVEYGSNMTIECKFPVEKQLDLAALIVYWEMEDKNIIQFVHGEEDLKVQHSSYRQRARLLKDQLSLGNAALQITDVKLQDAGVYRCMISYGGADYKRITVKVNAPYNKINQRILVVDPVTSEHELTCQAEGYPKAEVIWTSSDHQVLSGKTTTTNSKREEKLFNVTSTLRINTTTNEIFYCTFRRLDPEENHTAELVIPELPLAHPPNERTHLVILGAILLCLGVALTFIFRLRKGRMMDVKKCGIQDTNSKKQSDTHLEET
T1 sequence (Q9NZQ7 other isoform, or with tags, fused parts or gaps): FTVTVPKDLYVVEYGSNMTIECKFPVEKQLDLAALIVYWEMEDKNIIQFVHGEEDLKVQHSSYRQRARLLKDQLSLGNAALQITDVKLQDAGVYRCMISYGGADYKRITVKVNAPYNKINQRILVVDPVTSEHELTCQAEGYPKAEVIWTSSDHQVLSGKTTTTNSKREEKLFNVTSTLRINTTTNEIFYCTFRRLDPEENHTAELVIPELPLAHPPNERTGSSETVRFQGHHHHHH

B1: Compound No. 71 (peptide)
peptide: FFXGDVFYGWYLCG
HELM: PEPTIDE1{[O=C(C[*:3])[*:2]].F.[meF].[CCCC[C@@H](C(=O)[*:2])N(C)[*:1]].[Sar].D.V.[meF].Y.[Sar].W.Y.L.C.G.[am]}$PEPTIDE1,PEPTIDE1,1:R3-14:R3$$$V2.0
SMILES: CCCC[C@H]1C(=O)N(C)CC(=O)N[C@@H](CC(=O)O)C(=O)N[C@@H](C(C)C)C(=O)N(C)[C@@H](Cc2ccccc2)C(=O)N[C@@H](Cc2ccc(O)cc2)C(=O)N(C)CC(=O)N[C@@H](Cc2c[nH]c3ccccc23)C(=O)N[C@@H](Cc2ccc(O)cc2)C(=O)N[C@@H](CC(C)C)C(=O)N[C@H](C(=O)NCC(N)=O)CSCC(=O)N[C@@H](Cc2ccccc2)C(=O)N(C)[C@@H](Cc2ccccc2)C(=O)N1C
For the molecule B1, the figures for the IC50 (in test [1]; in test [2]; in the test with human PD-L1 on cells) were 1 nM, 83 nM and 1 nM, respectively.

B2: Compound No. 2 (peptide)
peptide: {CH2CO}-F[NMeA]NPHHSWRW[NMeNle][NMeNle]LCG-NH2
modifications: thioether N-14
SMILES: CCCC[C@H]1C(=O)N(C)[C@@H](CCCC)C(=O)N[C@@H](CC(C)C)C(=O)N[C@H](C(=O)NCC(N)=O)CSCC(=O)N[C@@H](Cc2ccccc2)C(=O)N(C)[C@@H](C)C(=O)N[C@@H](CC(N)=O)C(=O)N2CCC[C@H]2C(=O)N[C@@H](Cc2c[nH]cn2)C(=O)N[C@@H](Cc2c[nH]cn2)C(=O)N[C@@H](CO)C(=O)N[C@@H](Cc2c[nH]c3ccccc23)C(=O)N[C@@H](CCCNC(=N)N)C(=O)N[C@@H](Cc2c[nH]c3ccccc23)C(=O)N1C
Take B2: the IC50 in test [1] came to 14 nM; in test [2], 584 nM; in the test with human PD-L1 on cells, 40 nM.

{CH2CO}-FLIVIRDRVFRCG-NH2 (thioether N-12) [Compound No. 99]: the IC50 in test [1] amounted to 90 nM; in test [2], 4310 nM; with human PD-L1 on cells, 133 nM.
